Experimental data as given in publication PMC2808332, “Expanding the Substantial Interactome of NEMO Using Protein Microarrays” (PLoS ONE, 2010).

Molecular target: T1, NEMO (NF-κB essential modulator), tag-free, biotinylated (human, UniProt Q9Y6K9 1-419, biotin (in vitro biotinylation kit, biotin:NEMO molar ratio 9:1))
T1 construct: NEMO, NF-κB essential modulator, human, 48 kDa; also called biotinylated NEMO; biotin-NEMO; source: E. coli BL21(DE3), purified (glutathione sepharose), GST removed with thrombin, biotinylated in vitro
Experiment: peptide or protein array; Invitrogen Protoarray v4.0, about 8,400 human proteins spotted on nitrocellulose-coated glass slides; 10 µg biotinylated tag-free NEMO in 120 µl probing buffer (PBS, 0.5 mM DTT, 5 mM MgCl2, 5% glycerol, 0.05% Triton X-100), 4°C, 1.5 h; bound NEMO detected with labelled streptavidin; hits Z-score > 3, hits of the biotin-GST control array subtracted
Settings: both partners purified

| Binder | binding result |
| --- | --- |
| Prefoldin 5, transcript variant 1 (natural protein, human, UniProt Q99471-1 1-154, looked up, Prefoldin 5, human; also called PFDN5; source: insect cell/baculovirus, purified, spotted (Invitrogen Protoarray v4.0)) MAQSINITELNLPQLEMLKNQLDQEVEFLSTSIAQLKVVQTKYVEAKDCLNVLNKSNEGKELLVPLTSSMYVPGKLHDVEHVLIDVGTGYYVEKTAEDAKDFFKRKIDFLTKQMEKIQPALQEKHAMKQAVMEMMSQKIQQLTALGAAQATAKA | binds |
| TBC1 domain family, member 7 (natural protein, human, UniProt Q9P0N9-1 1-293, looked up, TBC1 domain family, member 7, human; also called TBC1D7; source: insect cell/baculovirus, purified, spotted (Invitrogen Protoarray v4.0)) MTEDSQRNFRSVYYEKVGFRGVEEKKSLEILLKDDRLDTEKLCTFSQRFPLPSMYRALVWKVLLGILPPHHESHAKVMMYRKEQYLDVLHALKVVRFVSDATPQAEVYLRMYQLESGKLPRSPSFPLEPDDEVFLAIAKAMEEMVEDSVDCYWITRRFVNQLNTKYRDSLPQLPKAFEQYLNLEDGRLLTHLRMCSAAPKLPYDLWFKRCFAGCLPESSLQRVWDKVVSGSCKILVFVAVEILLTFKIKVMALNSAEKITKFLENIPQDSSDAIVSKAIDLWHKHCGTPVHSS | binds |
| Leucine zipper and CTNNBIP1 domain containing (natural protein, human, UniProt Q8WZA0-1 1-190, looked up, Leucine zipper and CTNNBIP1 domain containing, human; also called LZIC; source: insect cell/baculovirus, purified, spotted (Invitrogen Protoarray v4.0)) MASRGKTETSKLKQNLEEQLDRLMQQLQDLEECREELDTDEYEETKKETLEQLSEFNDSLKKIMSGNMTLVDELSGMQLAIQAAISQAFKTPEVIRLFAKKQPGQLRTRLAEMDRDLMVGKLERDLYTQQKVEILTALRKLGEKLTADDEAFLSANAGAILSQFEKVSTDLGSGDKILALASFEVEKTKK | binds |
| CUE domain containing 1 (natural protein, human, UniProt Q9NWM3 1-386, looked up, CUE domain containing 1, human; also called CUEDC1; source: insect cell/baculovirus, purified, spotted (Invitrogen Protoarray v4.0)) MTSLFRRSSSGSGGGGTAGARGGGGGTAAPQELNNSRPARQVRRLEFNQAMDDFKTMFPNMDYDIIECVLRANSGAVDATIDQLLQMNLEGGGSSGGVYEDSSDSEDSIPPEILERTLEPDSSDEEPPPVYSPPAYHMHVFDRPYPLAPPTPPPRIDALGSGAPTSQRRYRNWNPPLLGNLPDDFLRILPQQLDSIQGNAGGPKPGSGEGCPPAMAGPGPGDQESRWKQYLEDERIALFLQNEEFMKELQRNRDFLLALERDRLKYESQKSKSSSVAVGNDFGFSSPVPGTGDANPAVSEDALFRDKLKHMGKSTRRKLFELARAFSEKTKMRKSKRKHLLKHQSLGAAASTANLLDDVEGHACDEDFRGRRQEAPKVEEGLREGQ | binds |
| Ring finger protein 7 (sensitive to apoptosis gene, SAG) (natural protein, human, UniProt Q9UBF6-1 1-113, looked up, Ring finger protein 7 (sensitive to apoptosis gene, SAG), human; also called RNF7; source: insect cell/baculovirus, purified, spotted (Invitrogen Protoarray v4.0)) MADVEDGEETCALASHSGSSGSKSGGDKMFSLKKWNAVAMWSWDVECDTCAICRVQVMDACLRCQAENKQEDCVVVWGECNHSFHNCCMSLWVKQNNRCPLCQQDWVVQRIGK | binds |
| Proteasome (prosome, macropain) subunit, alpha type, 3 (natural protein, human, UniProt P25788-1 1-255, looked up, Proteasome (prosome, macropain) subunit, alpha type, 3, human; also called PSMA3; source: insect cell/baculovirus, purified, spotted (Invitrogen Protoarray v4.0)) MSSIGTGYDLSASTFSPDGRVFQVEYAMKAVENSSTAIGIRCKDGVVFGVEKLVLSKLYEEGSNKRLFNVDRHVGMAVAGLLADARSLADIAREEASNFRSNFGYNIPLKHLADRVAMYVHAYTLYSAVRPFGCSFMLGSYSVNDGAQLYMIDPSGVSYGYWGCAIGKARQAAKTEIEKLQMKEMTCRDIVKEVAKIIYIVHDEVKDKAFELELSWVGELTNGRHEIVPKDIREEAEKYAKESLKEEDESDDDNM | binds |
| G protein, γ-transducing activity polypeptide 1 (natural protein, human, UniProt P63211 1-74, looked up, G protein, γ-transducing activity polypeptide 1, human; also called GNGT1; source: insect cell/baculovirus, purified, spotted (Invitrogen Protoarray v4.0)) MPVINIEDLTEKDKLKMEVDQLKKEVTLERMLVSKCCEEVRDYVEERSGEDPLVKGIPEDKNPFKELKGGCVIS | binds |
| PIM2 (printed gene product: Pediatric index of mortality 2) (natural protein, source: insect cell/baculovirus, purified, spotted (Invitrogen Protoarray v4.0)) not shown | binds |
| Myosin light chain 5, regulatory (natural protein, human, UniProt Q02045-1 1-173, looked up, Myosin light chain 5, regulatory, human; also called MYL5; source: insect cell/baculovirus, purified, spotted (Invitrogen Protoarray v4.0)) MASRKTKKKEGGALRAQRASSNVFSNFEQTQIQEFKEAFTLMDQNRDGFIDKEDLKDTYASLGKTNVKDDELDAMLKEASGPINFTMFLNLFGEKLSGTDAEETILNAFKMLDPDGKGKINKEYIKRLLMSQADKMTAEEVDQMFQFASIDVAGNLDYKALSYVITHGEEKEE | binds |
